Patent publication US20250179196A1 (Janssen / Centocor, published 2025)
Residue numbers refer to the chain shown, from its start.

T1: Recombinant human IL-23 receptor (IL-23R) extracellular domain (ECD) protein (human, UniProt Q5VWK5 24-355)
T1 construct: also called human IL-23R ECD; hu IL-23R ECD
T1 sequence: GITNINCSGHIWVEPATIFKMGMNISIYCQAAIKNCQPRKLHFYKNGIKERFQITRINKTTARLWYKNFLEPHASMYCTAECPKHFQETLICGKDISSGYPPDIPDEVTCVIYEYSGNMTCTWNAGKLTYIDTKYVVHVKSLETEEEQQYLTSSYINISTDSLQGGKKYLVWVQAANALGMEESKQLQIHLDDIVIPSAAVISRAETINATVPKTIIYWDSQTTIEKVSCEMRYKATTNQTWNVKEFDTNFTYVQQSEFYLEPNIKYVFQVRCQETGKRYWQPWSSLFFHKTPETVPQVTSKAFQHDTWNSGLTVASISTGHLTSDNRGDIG

T2: rat IL-23R extracellular domain (ECD) protein (rat)
T2 construct: also called rat IL-23R ECD; F1LX96 amino acids 24-354
T2 chain: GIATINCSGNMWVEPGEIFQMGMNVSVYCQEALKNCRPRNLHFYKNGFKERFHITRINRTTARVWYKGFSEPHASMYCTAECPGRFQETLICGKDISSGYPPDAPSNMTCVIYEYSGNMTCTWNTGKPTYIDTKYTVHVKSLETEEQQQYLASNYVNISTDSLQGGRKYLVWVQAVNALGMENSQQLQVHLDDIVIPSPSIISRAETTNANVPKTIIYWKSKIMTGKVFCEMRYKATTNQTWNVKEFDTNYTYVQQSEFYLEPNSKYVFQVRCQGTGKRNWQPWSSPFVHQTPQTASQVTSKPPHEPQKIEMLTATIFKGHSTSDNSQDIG

B1: I23RB27 (antibody, mouse IgG2a, kappa, V domains shown)
VH: QVQLKESGPDLVQPSQTLSLTCTVSGFSLTSYGVHWVRQPPGKGLEWVGTLGWDDKKSYNSALKSRLSISRDTSKSQVFLKLSSLQTEDTAMYYCTKEDVSYAMDFWGQGTTLTVSS
VL: DIQMTQSPTSLAVSLGQRATISCRASESVEYYGTSLMHWYQQKPGQPPKLLIYAASNVESGVPARFSGSGSGTDFSLNIHPVEEEDIAMYFCQQGKKVPWTFGAGTKLEMKR
notes: mouse immunization; mouse IgG2a/kappa
B2: I23RB188 (antibody, mouse IgG2a, kappa, V domains shown)
VH: QIQLVQSGPELKKPGETVKISCKASGYTFTNYGMNWVKQAPGKGLKWMGWINTYTGAPTYADDFKGRFAFSLETSASTAYLQINNFKNEDTATYFCARGNGYPYYYGINYWGQGTSVTVSS
VL: DVQMIQSPSSLSASLGERVSLTCRASQEISGNLSWLQQKPDGTIKRLIYAASTLDSGVPKRFSGSRSGSDYSLTISSLESEDFADYYCLQYASYPWTFGAGTRLEIKR
notes: as for B1
B3: I23RB153 (antibody, mouse IgG2a, kappa, V domains shown)
VH: EVKLVESGGGLVQPGGSLKLSCAASGFTFSSDTMSWVRQTPEKRLELVAEISSNGGSTYHIDTVKGRFTISRDNAKNTLYLQMSSLKSEDTAMYYCASPGYPWFAYWGQGTTVTVSA
VL: DIVMTQSHRFMSTSVGERVSITCKASQDVGNAVAWYQQKPGQSPKLLIYWTSTRHNGVPDRFTGSGSGTDFTLTISNVQGEDLADYFCQQYNRYPLTFGSGTKLEIKR
notes: as for B1
B4: I23RB162 (antibody, mouse IgG2a, kappa, V domains shown)
VH: EFQLQQSGPELVKPGASVKMSCKASGYTFTNYVMHWVKQKPGQGLEWIGYINPYNDGTKYNEKFKGKATLTSDKSSSTAYMELSSLTSEDSAVYYCARSRTGTRWYFDVWGAGTTVTVSS
VL: DIVMTQSQKFMSTSVGDRVSVTCKASQNVGTNVAWYQQKPGQSPKALIYSASYRYSGVPDRFTGSGSGTDFTLTISNVQSEDLAEYFCQQYNSYPFTFGSGTKLEIKR
notes: as for B1
B5: I23RB166 (antibody, mouse IgG2a, kappa, V domains shown)
VH: DVQLQESGPGLVKPSQTVSLTCTVTGYSITNGNHWWNWIRQVSGSKLEWIGYIRSSGSTDSNPSLKSRISITRDTSKNQLFLQLNSVTAEDIATYYCARERLRLRWSYFDYWGQGTTLTVSS
VL: DIVMTQSHKFMSTSVGARVSITCKASQDVSTAVAWYQQKPGQSPKLLIYSASYRYTGVPDRFTGSGSGTDFTFTISSVQAEDLAVYYCQQHYSTPRTFGGGTKLEIKR
notes: as for B1
B6: I23RB150 (antibody, mouse IgG2a, kappa, V domains shown)
VH: QIQLVQSGPELKKPGETVKISCKASAYTFTNYGMNWVKQAPGKGLKWMGWIKTNTGEPTYAEEFKGRFAFSLETSASTAYLQINNLKNEDTATYFCARSRQLGLRYYFDYWGQGTTLTVSS
VL: B5 VL with A17G, K45R, Y86F, R96Y, G100S, K103R
notes: as for B1
B7: I23RB156 (antibody, mouse IgG2a, kappa, V domains shown)
VH: QVQLKESGPGLVAPSQSLSITCTVSGFSLTSYAINWVRQPPGKGLEWLGVIWTGGGTNYNSVFKSRLSISKDNSKSQIFLKMISLQTDDTARYYCARNRDYSNYRWYFDVWGAGTTLTVSS
VL: B5 VL with A17D, Q42R, S52F, S76G, T94I, R96L, G100A, I106L
notes: as for B1
B8: I23RB160 (antibody, mouse IgG2a, kappa, V domains shown)
VH: QVQLKESGPDLVKPSQSLSLTCTVTGYSITSGYNWHWIRQFPGNKLEWMGYIHYSSGTIYNPSLKSRISITRDTSKNQFFLQLNSVTTEDTGTYYCARQLGLKAMDYWGQGTSVTVSS
VL: B5 VL with A17D, S30R, Y49H, A80V, S93T, R96Y, G100S
notes: as for B1
B9: I23RB148 (antibody, mouse IgG2a, kappa, V domains shown)
VH: DVQLQESGPDLVKPSQSLSLTCTVTGYSITSGYNWHWIRQFPGNKLEWMGYIHSSGTTNYSPSLRSRLSITRDTSKNQFFLQLNSVTTEDTATYYCTRQLGLKAMEYWGQGTTLTVSS
VL: B5 VL with A17D, I21L, D28E, S30R, S43P, S76I, S93T, R96Y, T97S, G100S
notes: as for B1
B10: I23RB169 (antibody, mouse IgG2a, kappa, V domains shown)
VH: QIQLVQSGPELKKPGETVKISCKASGYTFTTVGMQWVQKMPGKGFKWIGWINTHSGEPKYTDDFKGRFAFSLETSASTAYLQISNLKSEDTATYFCARSSALTGAFAYWGQGTLVTVSS
VL: DIKMTQSPASLAVSLGQRATISCRASKSVSTSDYSYMHWYQQKPGQPPKLLIYLASNLESGVPARFSGSGSGTDFTLNIHPVEEEDAATYYCQHSRELPRTFGAGTKLELKR
notes: as for B1
B11: I23RB155 (antibody, mouse IgG2a, kappa, V domains shown)
VH: QVQLKESGPGLVKPSQSLSLTCSVTGYSITSGHSWNWIRQFPGNKLEWMGYISYDGTNDYNPSLKNRISITRDTSKNQFFLNLNSVTTEDTVTYYCARGGGYYGGTYRVFADWGQGTTLTVSS
VL: QIVLSQSPASLAVSLGQRATISCRTSESVDTYGNSFIYWYQQKPGQPPKLLIYRASNLESGIPARFSGSGSRTDFTLTINPVEADDVATYYCQQGNKDPYTFGSGTKLEMKR
notes: as for B1
B12: I23RB182 (antibody, mouse IgG2a, kappa, V domains shown)
VH: EVQLQQSGPGLVKPSQSLSLTCSVTGYSITSGYFWNWLRQFPGSKLEWMGFIDNDGSNDYNPSLKNRISITRDTSKNQFFLRLNSVTTEDTATYYCARGRLGFFDSWGPGTTLTVSS
VL: DIVMTQSPAIMSASLGEKVTMSCRASSSVNYMYWYQQKSDASPKLWIYYTSNLAPGVPARFSGSGSGNSYSLTISSMEGEDAATYYCQQFTNSPWTFGAGTKLELKR
notes: as for B1
B13: I23RB168 (antibody, mouse IgG2a, kappa, V domains shown)
VH: QIQLVQSGPELVKPGASVKMSCKTSGYTFTDYYINWVKQRPGQGLEWIGWIYPAINNTNYNEKFKGKATLTVDTSSRTAYMQLNSLTSEDSAVYFCAISRKPYFDYWGQGTTLTVSS
VL: DIQMTQSSSSFSVSLGDRVTITCKASEDLYNRLAWYQQKPGNAPRLLISGATSLGTGVLSRFSGSGSGKDYTLSITSLQTEDVATYYCQQYWSIPWTFGAGTKLELKR
notes: as for B1

Target: T1, Recombinant human IL-23 receptor …
Assay: SPR Biacore 8K, supernatant, analysis 1
In short: (§1)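 Kinetics fitted to a 1:1 Langmuir model gave on-rate, off-rate and KD. Human or rat IL-23R ECD flowed over captured mAbs (~150 RU) at 0.8–500 nM, 5-fold dilutions: 3 min binding at 50 μL/min, then 30 min buffer, 25 °C, HBS-P+ plus 100 μg/ml BSA.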

Row | Kd | koff | kon | Binder
1 | 11.4 nM | 0.00372 s⁻¹ | 325000 M⁻¹ s⁻¹ | B1
2 | 13.3 nM | 0.0013 s⁻¹ | 98200 M⁻¹ s⁻¹ | B2
3 | 1.64 nM | 0.000226 s⁻¹ | 138000 M⁻¹ s⁻¹ | B3
4 | 44.6 nM | 0.0237 s⁻¹ | 531000 M⁻¹ s⁻¹ | B4
5 | 43.1 nM | 0.0193 s⁻¹ | 447000 M⁻¹ s⁻¹ | B5
6 | 96.5 nM | 0.0329 s⁻¹ | 341000 M⁻¹ s⁻¹ | B6
7 | 0.403 nM | 0.000218 s⁻¹ | 542000 M⁻¹ s⁻¹ | B7
8 | 16.9 nM | 0.00955 s⁻¹ | 567000 M⁻¹ s⁻¹ | B8
9 | 0.874 nM | 0.000459 s⁻¹ | 525000 M⁻¹ s⁻¹ | B9
10 | 91.3 nM | 0.0116 s⁻¹ | 128000 M⁻¹ s⁻¹ | B10
11 | < 0.0784 nM | < 2.89e-05 s⁻¹ | 369000 M⁻¹ s⁻¹ | B11
12 | 49.8 nM | 0.00194 s⁻¹ | 38900 M⁻¹ s⁻¹ | B12
13 | 0.279 nM | 0.000118 s⁻¹ | 424000 M⁻¹ s⁻¹ | B13

Target: T2, rat IL-23R extracellular domain (ECD) …
Assay: SPR Biacore 8K, supernatant
In short: as §1

Row | binding result | Kd | koff | kon | Binder
14 | no binding (tested: 500 nM) |  |  |  | B1
15 | no binding (tested: 500 nM) |  |  |  | B2
16 |  | 92.1 nM | 0.00548 s⁻¹ | 59500 M⁻¹ s⁻¹ | B3
17 | no binding (tested: 500 nM) |  |  |  | B4
18 | no binding (tested: 500 nM) |  |  |  | B5
19 | no binding (tested: 500 nM) |  |  |  | B6
20 | no binding (tested: 500 nM) |  |  |  | B7
21 | no binding (tested: 500 nM) |  |  |  | B8
22 | no binding (tested: 500 nM) |  |  |  | B9
23 | no binding (tested: 500 nM) |  |  |  | B10
24 | no binding (tested: 500 nM) |  |  |  | B11
25 | no binding (tested: 500 nM) |  |  |  | B12
26 | no binding (tested: 500 nM) |  |  |  | B13

Target: T1, Recombinant human IL-23 receptor …
Assay: SPR Biacore 8K, supernatant, analysis 2
In short: as §1

Row | Kd | koff | kon | Binder
27 | 18.7 nM | 0.00416 s⁻¹ | 223000 M⁻¹ s⁻¹ | B1
28 | 18.9 nM | 0.00151 s⁻¹ | 79800 M⁻¹ s⁻¹ | B2
29 | 2.33 nM | 0.000318 s⁻¹ | 137000 M⁻¹ s⁻¹ | B3
30 | 62.2 nM | 0.0216 s⁻¹ | 347000 M⁻¹ s⁻¹ | B4
31 | 44.1 nM | 0.00942 s⁻¹ | 214000 M⁻¹ s⁻¹ | B5
32 | 112 nM | 0.0376 s⁻¹ | 334000 M⁻¹ s⁻¹ | B6
33 | 0.588 nM | 0.000259 s⁻¹ | 441000 M⁻¹ s⁻¹ | B7
34 | 13.8 nM | 0.0142 s⁻¹ | 1.02e+06 M⁻¹ s⁻¹ | B8
35 | 0.766 nM | 0.000382 s⁻¹ | 498000 M⁻¹ s⁻¹ | B9
36 | 34.8 nM | 0.00427 s⁻¹ | 123000 M⁻¹ s⁻¹ | B10
37 | < 0.121 nM | < 2.89e-05 s⁻¹ | 239000 M⁻¹ s⁻¹ | B11
38 | 43.7 nM | 0.00394 s⁻¹ | 90200 M⁻¹ s⁻¹ | B12
39 | 0.422 nM | 0.000155 s⁻¹ | 368000 M⁻¹ s⁻¹ | B13
